Measured values reported in the supplement of paper PMC10724198.
± gives the standard deviation of the averaged measurements.

System: Saccharomyces cerevisiae
Assay: protein stability index of tFT-peptide fusion (C-terminal peptide) (PSI (0-1 scale)); higher = more stable (slower turnover)
Conditions: temperature: 30 C
Experimental: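 MPS profiling in S. cerevisiae of the yeast C-terminome library: the last 12 aa of each annotated ORF are fused to the C-terminus of a sfGFP-mCherry timer, after a GGGS linker. Cells are FACS-sorted into 8 mCherry/sfGFP bins and deep-sequenced. PSI runs from 0 (unstable) to 1 (stable); wild type and das1Δ backgrounds, two technical replicates each.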

[1] = genetic background: das1 deletion

Sequence	protein stability index [1]	protein stability index (genetic background: wild type)
GYACPTHYLREM [MXR1 C-terminal 12 aa]	0.6899 ± 0.0052	0.7169 ± 0.0063
HEKRTEEVARYA [YGR026W C-terminal 12 aa]	0.7173 ± 0.0035	0.6604 ± 0.0066
HEVDTEKINIFQ [YML003W C-terminal 12 aa]	0.729 ± 0.018	0.697 ± 0.026
HGGNVSSSTYQA [GND1 C-terminal 12 aa]	0.685 ± 0.013	0.696 ± 0.029
HGNDFLQHVNRK [RSM22 C-terminal 12 aa]	0.716 ± 0.03	0.7065 ± 0.0016
HIFYFVLSYSEW [YIL030W-A C-terminal 12 aa]	0.172 ± 0.022	0.192 ± 0.0083
HIREDYLRQFGN [KTR5 C-terminal 12 aa]	0.691 ± 0.027	0.616 ± 0.022
HKSGKLLLPVYI [ECO1 C-terminal 12 aa]	0.636 ± 0.0084	0.619 ± 0.03
HLQRCLSRGARR [SGF11 C-terminal 12 aa]	0.698 ± 0.016	0.759 ± 0.039
HNILDRCLKRLS [RKM3 C-terminal 12 aa]	0.699 ± 0.03	0.716 ± 0.013
HNPSLWSCIFGK [SWS2 C-terminal 12 aa]	0.716 ± 0.02	0.714 ± 0.029
HNVCGRAFSLPL [HSL7 C-terminal 12 aa]	0.7123 ± 0.0037	0.677 ± 0.035
HQKARSSYCCIQ [XDJ1 C-terminal 12 aa]	0.759 ± 0.02	0.706 ± 0.0085
HRIASKIRSKLR [GIP4 C-terminal 12 aa]	0.686 ± 0.0021	0.714 ± 0.03
HTSVKALQRMTW [CTH1 C-terminal 12 aa]	0.7271 ± 0.0051	0.6829 ± 0.0024
HWLQLKPGQPMY [MF(ALPHA)1 C-terminal 12 aa]	0.7177 ± 0.0044	0.6822 ± 0.0032
HYSPFYQLPLIF [YGR240C-A C-terminal 12 aa]	0.683 ± 0.022	0.575 ± 0.0067
IAPEVTYRGFIE [RIM9 C-terminal 12 aa]	0.689 ± 0.027	0.685 ± 0.03
IDEIYEDKWLKI [PSK2 C-terminal 12 aa]	0.727 ± 0.027	0.74 ± 0.047
IDLVLVVNVLSL [YCR064C C-terminal 12 aa]	0.425 ± 0.015	0.428 ± 0.0062
IDTWEIKFNELF [YLR287C C-terminal 12 aa]	0.732 ± 0.042	0.6954 ± 0.0012

Sequence	protein stability index [1]	protein stability index (genetic background: wild type)
IELWETFYQTNL [VPS5 C-terminal 12 aa]	0.745 ± 0.011	0.7177 ± 0.0056
IESTLSNKLSIN [YCR013C C-terminal 12 aa]	0.696 ± 0.024	0.674 ± 0.014
IFTSGSKSMKDL [ALG6 C-terminal 12 aa]	0.73 ± 0.01	0.671 ± 0.0092
IFVAILLRYAKI [PCA1 C-terminal 12 aa]	0.243 ± 0.013	0.228 ± 0.006
IFVGETIFFFLF [YDR053W C-terminal 12 aa]	0.625 ± 0.016	0.536 ± 0.018
IFYLRFPSYIRG [YJR151W-A C-terminal 12 aa]	0.614 ± 0.017	0.615 ± 0.0023
IGRENENENEDD [POP5 C-terminal 12 aa]	0.688 ± 0.037	0.704 ± 0.058
IHTPTIPKRSLT [MCX1 C-terminal 12 aa]	0.7149 ± 0.0019	0.767 ± 0.052
IIGALNLYDGLI [FRQ1 C-terminal 12 aa]	0.737 ± 0.017	0.763 ± 0.12
IIGIYYVLKWLR [BOS1 C-terminal 12 aa]	0.3507 ± 0.0021	0.392 ± 0.0089
IKLARRLRGERS [YBR010W; YNL031C C-terminal 12 aa]	0.6941 ± 0.0047	0.68 ± 0.012
IKLIDFNETSLT [MCM22 C-terminal 12 aa]	0.68 ± 0.008	0.675 ± 0.0072
IKRLDANTDFNI [MFB1 C-terminal 12 aa]	0.678 ± 0.019	0.668 ± 0.024
ILDDTRQALGNT [PCL8 C-terminal 12 aa]	0.703 ± 0.034	0.737 ± 0.013
ILKELSNLETLY [RPB4 C-terminal 12 aa]	0.7182 ± 0.007	0.737 ± 0.051
ILNCVGSAKTSG [YBR298C-A C-terminal 12 aa]	0.68417 ± 0.00062	0.666 ± 0.019
ILRNASQIVSSV [VPS1 C-terminal 12 aa]	0.7029 ± 0.0038	0.6942 ± 0.0029
ILRPLELKYFGR [FCY2 C-terminal 12 aa]	0.707 ± 0.029	0.675 ± 0.027
ILSLYFISDRTG [YBR200W-A C-terminal 12 aa]	0.7249 ± 0.0034	0.753 ± 0.053
ILWKNGIYIAHI [HUR1 C-terminal 12 aa]	0.659 ± 0.01	0.6113 ± 0.0034
ININDLMVNRNH [YOR389W C-terminal 12 aa]	0.7014 ± 0.0018	0.7003 ± 0.0012

Sequence	protein stability index [1]	protein stability index (genetic background: wild type)
INKKKSGSGCIC [YPT10 C-terminal 12 aa]	0.696 ± 0.035	0.647 ± 0.026
INKRAVSNSKDV [RFT1 C-terminal 12 aa]	0.692 ± 0.026	0.727 ± 0.027
IPTKKSQMDYFL [PPH3 C-terminal 12 aa]	0.709 ± 0.029	0.753 ± 0.064
IRLDGENNSCSC [YPT7 C-terminal 12 aa]	0.692 ± 0.017	0.697 ± 0.012
ISRKAGHPAPAF [YML100W-A C-terminal 12 aa]	0.717 ± 0.0091	0.704 ± 0.03
ITLRLWEQRQAK [MAD1 C-terminal 12 aa]	0.754 ± 0.019	0.726 ± 0.0076
IYALSIKHPKEI [CPT1 C-terminal 12 aa]	0.713 ± 0.0085	0.7248 ± 0.0029
IYANRDKAKKNM [OPI3 C-terminal 12 aa]	0.681 ± 0.021	0.499 ± 0.03
IYIYTSTLQLCV [YHR028W-A C-terminal 12 aa]	0.376 ± 0.024	0.362 ± 0.011
IYSVIQCLFLHS [YMR141W-A C-terminal 12 aa]	0.64018 ± 0.00059	0.607 ± 0.018
KAALDRVENALA [IML2 C-terminal 12 aa]	0.699 ± 0.02	0.676 ± 0.017
KAIEYFEEYQSW [FRE3 C-terminal 12 aa]	0.721 ± 0.021	0.6952 ± 0.0065
KDGFVLYSYGQK [SKP2 C-terminal 12 aa]	0.69 ± 0.021	0.738 ± 0.034
KDKKDKKKKHRD [RPA34 C-terminal 12 aa]	0.704 ± 0.013	0.664 ± 0.035
KDLFASIGKKKL [FYV8 C-terminal 12 aa]	0.714 ± 0.011	0.682 ± 0.026
KDWLIKTRKTSL [TVS1 C-terminal 12 aa]	0.707 ± 0.013	0.693 ± 0.011
KEDKKKKSSNCC [YPT32 C-terminal 12 aa]	0.704 ± 0.0073	0.732 ± 0.014
KEGRRSRTRTSS [YJR098C C-terminal 12 aa]	0.7049 ± 0.0033	0.703 ± 0.0041
KENLANNEILDN [YKL063C C-terminal 12 aa]	0.683 ± 0.018	0.67 ± 0.026
KERIVLSNVRPM [TFC7 C-terminal 12 aa]	0.6909 ± 0.004	0.686 ± 0.027
KESIQQQEDDLL [SEC17 C-terminal 12 aa]	0.6974 ± 0.0026	0.692 ± 0.014

Sequence	protein stability index [1]	protein stability index (genetic background: wild type)
KETDKVNDENSI [MLP1 C-terminal 12 aa]	0.708 ± 0.0044	0.756 ± 0.059
KETTTRNYRGTC [GAD1 C-terminal 12 aa]	0.71 ± 0.029	0.707 ± 0.032
KFAKANIGYVMG [RPN4 C-terminal 12 aa]	0.4528 ± 0.0025	0.495 ± 0.011
KFDIVDQLLSTL [RSM24 C-terminal 12 aa]	0.7136 ± 0.0037	0.684 ± 0.014
KFEKKLYNFLGF [GEP4 C-terminal 12 aa]	0.701 ± 0.028	0.717 ± 0.017
KGMKRLDYRFIH [SOA1 C-terminal 12 aa]	0.688 ± 0.029	0.234 ± 0.012
KGNLPGVKKGIW [MRP2 C-terminal 12 aa]	0.687 ± 0.012	0.668 ± 0.011
KGRYVNSSKRRS [NOB1 C-terminal 12 aa]	0.6955 ± 0.00021	0.6781 ± 0.004
KGTKRDQNDNHN [AQR1 C-terminal 12 aa]	0.698 ± 0.01	0.6782 ± 0.0022
KHAFMGTLKKDL [RPL3 C-terminal 12 aa]	0.7 ± 0.01	0.686 ± 0.03
KIEHVDDETRTH [PEX13 C-terminal 12 aa]	0.6991 ± 0.0032	0.6991 ± 0.0042
KILGRYVVDTSK [ADH3 C-terminal 12 aa]	0.7177 ± 0.0055	0.6547 ± 0.0035
KKKRGFLGLFGR [SRP68 C-terminal 12 aa]	0.706 ± 0.021	0.677 ± 0.0092
KKLEGTIEYQKL [RPT4 C-terminal 12 aa]	0.708 ± 0.027	0.702 ± 0.012
KKLNFKLCQAFM [NUP85 C-terminal 12 aa]	0.673 ± 0.012	0.6183 ± 0.006
KKNGKISEKPKK [PDR15 C-terminal 12 aa]	0.727 ± 0.02	0.677 ± 0.037
KKNKSAIDGIFG [RMP1 C-terminal 12 aa]	0.7173 ± 0.0015	0.694 ± 0.014
KKPSSYVMVPRP [MRPL8 C-terminal 12 aa]	0.708 ± 0.011	0.6724 ± 0.002
KKQESDNDANSK [CMC2 C-terminal 12 aa]	0.703 ± 0.014	0.6755 ± 0.0052
